Test results taken from the supplement of paper PMC10567573.

B1: SLC19A2 (parent)
chain: IYPVWTYSYLVLLFPVFLATDYLR
B2: PTPRD (parent)
chain: LTKLREMGREKCHQYWPAERSARY

Variants of: B1
Test: protein stability index of a GFP-peptide fusion (GPS, HEK-293T) (PSI 1-6); higher = more stable
Conditions: c terminus: a fixed tail appended
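Note: lentivirally expressed fusions sorted by FACS into six bins by GFP to DsRed ratio, PSI derived from sequencing read proportions per bin multiplied by bin number.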

Protein stability index of substitutions, site by site:
F14: C 2.63, P 2.48, Q 2.98, A 2.08, T 3.75, K 1.99, Y 2.88, V 2.97, W 2.47, H 3.32, I 3.07, R 3.83, E 2.74, M 4.1, G 3.54, L 3.35
T20: S 2.33, Q 3.01, F 2.44, I 4.41, A 2.94, L 4.02, W 1.93, C 2.53, Y 1.95, P 3.55, E 1.62
R24: M 2.99, W 3.24, A 2.61, D 2.64, L 2.41, T 1.69, H 2.63, E 1.91, P 1.99, N 4.07, F 3.56, Q 3.46, S 3.04, K 3.31, I 3.43, C 1.84, Y 2.75, G 2.58
L23: T 2.48, A 3.57, W 3.21, M 3.02, K 2.22, V 2.32, G 3.42, H 2.11, R 3.03, Q 2.54, N 1.46, D 2.96, S 2.62, E 2.68, I 2.61
L18: I 3.03, P 3.1, C 3.04, G 3.7, F 2.3, T 2.54, N 2.84, A 2.5, M 3.69, H 3.99, E 3.06, Y 2.32, S 3.42, K 2.51, R 4.66, Q 2.84, D 2.81
P15: M 3.22, Q 3.38, L 2.41, R 2.7, W 3.27, Y 1.06, N 2.11, S 2.5, G 1.93, H 2.75, A 3.53, E 3.03, C 3.79, F 2.95
Y22: G 1.66, Q 1.98, S 3.06, F 3.76, K 4.23, E 2.71, W 2.78, V 2.6, T 2.68, R 1.75, D 2.55, P 3.49
V11: Q 4.14, I 3.28, W 4.19, N 2.92, L 2.77, M 1.95, P 2.04
A19: D 2.38, I 2.47, W 3.92, T 1.57, V 3.34, G 2.6, K 1.69, P 4.21, Q 2.78, L 3.29, Y 3.37, M 2.59, H 2.48, S 2.5, F 3.11, N 3.19
F17: P 4.41, S 2.64, E 3.22, W 2.19, G 2.81, M 3.21, T 2.95, N 3.6, D 2.99, A 3.59, R 2.95, H 3.74, C 2.97, K 3.78, Y 2.43
L13: Q 4.28, T 1.87, M 3.06, A 3.41, P 1.48, E 2.6, G 1.19, N 2.64, I 2.53, Y 2.87, C 2.38, F 2.64, W 3.58, V 3.06, D 3.57, S 2.34
L12: Y 2.31, T 2.41, S 2.91, A 3.41, Q 3.02, F 2.25, W 3.3, K 3.56, V 2.6, M 2.48, I 3.39, P 3.92, H 3.3, N 1.72, D 2.3, R 2.37
V16: M 2.55, Y 2.34, Q 3.85, K 1.95, R 3.91, P 2.42, F 3.04, T 2.15, C 2.79, E 1.72, H 4.12, A 3.1, S 3.4, L 2.41, I 3.52, N 2.79, D 4.04
D21: R 2.67, H 3.39, Y 3.42, C 2.36, K 2.46, V 2.38, S 2.09, G 2.73, W 2.24, P 2.63, E 3.77, F 2.61, N 2.65, T 2.75, A 3.19

Variants of: B2
Test: as above
Conditions: c terminus: a fixed tail appended

Protein stability index: each site, then its substitutions
R5: F 2.21, P 2.75, V 2.18, W 2.24, H 2.58, Q 2.91, E 3.16, G 3.18, I 2.44, N 2.76, L 2.4, T 2.38, C 2.62, D 3.32, S 3.17, M 2.39, Y 2.23, K 2.29, A 2.53
L1: V 2.39, F 1.97, Q 2.87, N 3.1, W 2.43, A 2.88, G 2.47, Y 2.21, R 2.47, P 2.66, K 3.36, C 2.42, M 2.95, H 2.87, D 3.59, T 2.86, S 2.59, I 2.26, E 3.12
K3: C 2.34, T 2.63, W 1.88, Q 2.33, R 2.43, E 3.3, H 2.41, F 2.4, D 2.9, Y 2.44, G 2.64, M 2.41, I 2.08, P 2.66, V 1.92, S 2.73, N 3.09, A 2.7, L 2.21
T2: V 1.99, N 2.29, D 2.83, Y 1.97, M 2.29, G 2.77, S 2.16, R 2.3, F 1.96, E 3.03, C 1.82, Q 2.95, I 2.22, H 2.25, W 1.78, K 2.92, P 2.53, L 2.15, A 2.69
E6: G 2.23, M 2.18, C 1.75, Q 2.1, W 1.82, A 2.41, V 1.73, P 2.33, Y 1.7, S 1.98, L 2.13, R 2.38, H 2.09, N 1.8, K 1.95, F 2.45, T 2.52, I 1.9, D 2.66
L4: P 2.88, N 3.04, C 2.12, R 2.92, S 2.99, H 2.84, D 3.29, M 2.65, Q 3.1, I 2.58, Y 2.63, E 3.55, W 2.12, A 2.72, G 3.55, F 2.63, T 2.77, K 2.8, V 2.48
M7: F 2.41, N 2.77, L 1.9, A 2.57, K 2.98, D 3.14, Q 2.56, I 2.54, H 2.75, S 2.55, C 2.23, R 2.35, P 2.67, E 3.25, G 2.64
